Experimental data published in patent US20190314526A1.
Where two headings read alike, the source gives them in different places.

What was measured:
[1] = target: primate AAV-8 capsid (rAAV virion) (primate AAV-8); test: cell-based or functional assay
[2] = target: caprine (goat) AAV capsid (caprine rAAV virion) (caprine AAV); test: cell-based or functional assay
[3] = target: primate AAV-8 capsid (rAAV virion) (primate AAV-8); test: cell-based or functional assay; remark: listed apart in the source
[4] = target: primate AAV-6 capsid (rAAV virion) (primate AAV-6); test: cell-based or functional assay
[5] = target: primate AAV-5 capsid (rAAV virion) (primate AAV-5); test: cell-based or functional assay
[6] = target: AAV-2 with a wild-type capsid (rAAV-2 virion) (AAV-2) (UniProt P03135); test: cell-based or functional assay
[7] = target: primate AAV-3B capsid (rAAV virion) (primate AAV-3B); test: cell-based or functional assay
[8] = target: bovine AAV-C1 capsid (AAV-C1-LacZ vector) (bovine AAV); test: cell-based or functional assay
[9] = target: caprine (goat) AAV capsid (caprine rAAV virion) (caprine AAV); test: cell-based or functional assay; remark: listed apart in the source
[10] = target: primate AAV-1 capsid (rAAV virion) (primate AAV-1); test: cell-based or functional assay
[11] = target: primate AAV-4 capsid (rAAV virion) (primate AAV-4); test: cell-based or functional assay
[12] = target: AAV-2 with a wild-type capsid (rAAV-2 virion) (AAV-2) (UniProt P03135); test: all-A20 ELISA, virus needed for half maximal OD, against wild type
[13] = target: AAV-2 capsid mutant K395A (rAAV-2 virion) (AAV-2) (UniProt P03135); test: cell-based or functional assay
[14] = target: AAV-2 capsid mutant V571K (rAAV-2 virion) (AAV-2) (UniProt P03135); test: cell-based or functional assay
[15] = target: AAV-2 capsid mutant W365A (rAAV-2 virion) (AAV-2) (UniProt P03135); test: cell-based or functional assay
[16] = target: AAV-2 capsid mutant V571A (rAAV-2 virion) (AAV-2) (UniProt P03135); test: cell-based or functional assay
[17] = target: AAV-2 capsid mutant E394K (rAAV-2 virion) (AAV-2) (UniProt P03135); test: cell-based or functional assay
[18] = target: AAV-2 capsid mutant E437A (rAAV-2 virion) (AAV-2) (UniProt P03135); test: cell-based or functional assay
[19] = target: AAV-2 capsid mutant S127A (rAAV-2 virion) (AAV-2) (UniProt P03135); test: cell-based or functional assay
[20] = target: AAV-2 capsid mutant S247A (rAAV-2 virion) (AAV-2) (UniProt P03135); test: cell-based or functional assay
[21] = target: AAV-2 capsid mutant E411A (rAAV-2 virion) (AAV-2) (UniProt P03135); test: cell-based or functional assay
[22] = target: AAV-2 capsid mutant Q248A (rAAV-2 virion) (AAV-2) (UniProt P03135); test: cell-based or functional assay
[23] = target: AAV-2 capsid mutant K407A (rAAV-2 virion) (AAV-2) (UniProt P03135); test: cell-based or functional assay
[24] = target: AAV-2 capsid mutant Q126A (rAAV-2 virion) (AAV-2) (UniProt P03135); test: cell-based or functional assay
[25] = target: AAV-2 capsid mutant K569A (rAAV-2 virion) (AAV-2) (UniProt P03135); test: cell-based or functional assay
[26] = target: AAV-2 capsid mutant E411A/T413A/G449A/N450A (rAAV-2 virion) (AAV-2) (UniProt P03135); test: all-A20 ELISA, against wild type
[27] = target: AAV-2 capsid mutant R334A/G449A (rAAV-2 virion) (AAV-2) (UniProt P03135); test: all-A20 ELISA, against wild type
[28] = target: AAV-2 capsid mutant N568A (rAAV-2 virion) (AAV-2) (UniProt P03135); test: all-A20 ELISA, against wild type
[29] = target: AAV-2 capsid mutant G449A (rAAV-2 virion) (AAV-2) (UniProt P03135); test: all-A20 ELISA, against wild type
[30] = target: AAV-2 capsid mutant E393D (rAAV-2 virion) (AAV-2) (UniProt P03135); test: all-A20 ELISA, against wild type
[31] = target: AAV-2 capsid mutant G246A (rAAV-2 virion) (AAV-2) (UniProt P03135); test: all-A20 ELISA, against wild type
[32] = target: AAV-2 capsid mutant D357E (rAAV-2 virion) (AAV-2) (UniProt P03135); test: all-A20 ELISA, against wild type
[33] = target: AAV-2 capsid mutant H372Q (rAAV-2 virion) (AAV-2) (UniProt P03135); test: all-A20 ELISA, against wild type
[34] = target: AAV-2 capsid mutant S130T (rAAV-2 virion) (AAV-2) (UniProt P03135); test: all-A20 ELISA, against wild type
[35] = target: AAV-2 capsid mutant V571K (rAAV-2 virion) (AAV-2) (UniProt P03135); test: all-A20 ELISA, against wild type
[36] = target: AAV-2 capsid mutant G449A/N568A (rAAV-2 virion) (AAV-2) (UniProt P03135); test: all-A20 ELISA, against wild type
[37] = target: AAV-2 capsid mutant R334A/G449A/N568A (rAAV-2 virion) (AAV-2) (UniProt P03135); test: all-A20 ELISA, against wild type
[38] = target: AAV-2 capsid mutant R334A/N568A (rAAV-2 virion) (AAV-2) (UniProt P03135); test: all-A20 ELISA, against wild type
[39] = target: AAV-2 capsid mutant S130A (rAAV-2 virion) (AAV-2) (UniProt P03135); test: all-A20 ELISA, against wild type
[40] = target: AAV-2 capsid mutant N360H (rAAV-2 virion) (AAV-2) (UniProt P03135); test: all-A20 ELISA, against wild type
[41] = target: AAV-2 capsid mutant N568A/V571A (rAAV-2 virion) (AAV-2) (UniProt P03135); test: all-A20 ELISA, against wild type
[42] = target: AAV-2 capsid mutant R334A (rAAV-2 virion) (AAV-2) (UniProt P03135); test: all-A20 ELISA, against wild type
[43] = target: AAV-2 capsid mutant N568K (rAAV-2 virion) (AAV-2) (UniProt P03135); test: all-A20 ELISA, against wild type
[44] = target: AAV-2 capsid mutant T413K (rAAV-2 virion) (AAV-2) (UniProt P03135); test: all-A20 ELISA, against wild type
[45] = target: AAV-2 capsid mutant H372K (rAAV-2 virion) (AAV-2) (UniProt P03135); test: all-A20 ELISA, against wild type
[46] = target: AAV-2 capsid mutant D132N (rAAV-2 virion) (AAV-2) (UniProt P03135); test: all-A20 ELISA, against wild type
[47] = target: AAV-2 capsid mutant H134Q (rAAV-2 virion) (AAV-2) (UniProt P03135); test: all-A20 ELISA, against wild type
[48] = target: AAV-2 capsid mutant E411A/T413A (rAAV-2 virion) (AAV-2) (UniProt P03135); test: all-A20 ELISA, against wild type

## purified pooled human IgG IVIG-8 (Panglobulin Lot #1838-00351, ZLB Bioplasma AG)
[1]
  Lowest concentration of IVIG showing >50% neutralization of the virus: 10 mg/mL
[2]
  Lowest concentration of IVIG showing >50% neutralization of the virus: 40 mg/mL
[3]
  % blue cells compared to the control at IVIg 8 0.01 ug/ul: 90%
  % blue cells compared to the control at IVIg 8 0.1 ug/ul: 88%
  % blue cells compared to the control at IVIg 8 1 ug/ul: 77%
  % blue cells compared to the control at IVIg 8 50 ug/ul: 0%
  % of control transduction at IVIg 8 0.1 ug/ul: 105%
  % of control transduction at IVIg 8 10 ug/ul: 44%
  % of control transduction at IVIg 8 20 ug/ul: 11%
  % of control transduction at IVIg 8 40 ug/ul: 0%
  % of control transduction at IVIg 8 50 ug/ul: 0%
  Lowest concentration of IVIG showing >50% neutralization of the virus: 50 mg/mL
[4]
  % blue cells compared to the control at IVIg 8 0.01 ug/ul: 100%
  % blue cells compared to the control at IVIg 8 0.1 ug/ul: 81%
  % blue cells compared to the control at IVIg 8 10 ug/ul: 14%
  % blue cells compared to the control at IVIg 8 50 ug/ul: 0%
  Lowest concentration of IVIG showing >50% neutralization of the virus: 10 mg/mL
[5]
  % blue cells compared to the control at IVIg 8 0.1 ug/ul: 17%
  % blue cells compared to the control at IVIg 8 1 ug/ul: 1%
  % blue cells compared to the control at IVIg 8 10 ug/ul: 1%
  % blue cells compared to the control at IVIg 8 50 ug/ul: 0%
  Lowest concentration of IVIG showing >50% neutralization of the virus: 0.1 mg/mL
[6]
  % blue cells compared to the control at IVIg 8 0.01 ug/ul: 100%
  % blue cells compared to the control at IVIg 8 0.1 ug/ul: 100%
  % blue cells compared to the control at IVIg 8 10 ug/ul: 2%
  % blue cells compared to the control at IVIg 8 50 ug/ul: 0%
  Lowest concentration of IVIG showing >50% neutralization of the virus: 10 mg/mL
  lowest concentration of IVIG showing more than 50% neutralization: 0.2 mg/mL
[7]
  % blue cells compared to the control at IVIg 8 0.01 ug/ul: 92%
  % blue cells compared to the control at IVIg 8 1 ug/ul: 45%
  % blue cells compared to the control at IVIg 8 10 ug/ul: 0%
  % blue cells compared to the control at IVIg 8 50 ug/ul: 0%
  Lowest concentration of IVIG showing >50% neutralization of the virus: 1 mg/mL
[8]
  fold more resistant to neutralization by human IVIG than AAV-2: 16 fold
  lowest concentration of IVIG showing more than 50% neutralization: 3.25 mg/mL
[9]
  % of control transduction at IVIg 8 0.1 ug/ul: 120%
  % of control transduction at IVIg 8 1 ug/ul: 93%
  % of control transduction at IVIg 8 10 ug/ul: 80%
  % of control transduction at IVIg 8 40 ug/ul: 14%
  % of control transduction at IVIg 8 50 ug/ul: 8%
  Lowest concentration of IVIG showing >50% neutralization of the virus: 50 mg/mL
[10]
  % blue cells compared to the control at IVIg 8 0.01 ug/ul: 100%
  % blue cells compared to the control at IVIg 8 0.1 ug/ul: 86%
  % blue cells compared to the control at IVIg 8 10 ug/ul: 14%
  % blue cells compared to the control at IVIg 8 50 ug/ul: 0%
  Lowest concentration of IVIG showing >50% neutralization of the virus: 10 mg/mL
[11]
  % blue cells compared to the control at IVIg 8 0.01 ug/ul: 100%
  % blue cells compared to the control at IVIg 8 0.1 ug/ul: 100%
  % blue cells compared to the control at IVIg 8 1 ug/ul: 100%
  % blue cells compared to the control at IVIg 8 50 ug/ul: 49%
  Lowest concentration of IVIG showing >50% neutralization of the virus: 50 mg/mL

## murine monoclonal antibody A20 (protein A-purified anti-AAV-2 mouse monoclonal antibody)
[12]
  Fold decrease in binding of murine A20: 1 fold
[13]
  Fold decrease in A20 titer: 0.9 fold
[6]
  % neutralized at dilutions of A20 greater than 1:1000: < 3%
  Fold decrease in neutralizing titer: 1 fold
  neutralizing titer of A20 (reciprocal dilution): 509
[14]
  Fold decrease in A20 titer: 217 fold
[15]
  Fold decrease in A20 titer: 0.5 fold
[16]
  Fold decrease in A20 titer: 1.4 fold
[17]
  Fold decrease in A20 titer: 0.9 fold
[18]
  Fold decrease in A20 titer: 0.8 fold
[19]
  Fold decrease in neutralizing titer: 57 fold
  neutralizing titer of A20 (reciprocal dilution): 9
[20]
  Fold decrease in neutralizing titer: 2.8 fold
  neutralizing titer of A20 (reciprocal dilution): 180
[21]
  Fold decrease in A20 titer: 2.7 fold
[22]
  Fold decrease in neutralizing titer: 5.7 fold
  neutralizing titer of A20 (reciprocal dilution): 89
[23]
  Fold decrease in A20 titer: 1.6 fold
[24]
  Fold decrease in neutralizing titer: 2.5 fold
  neutralizing titer of A20 (reciprocal dilution): 203
[25]
  Fold decrease in A20 titer: 1.7 fold
[26]
  Fold decrease in binding of murine A20: 1 fold
[27]
  Fold decrease in binding of murine A20: 1 fold
[28]
  Fold decrease in binding of murine A20: 1 fold
[29]
  Fold decrease in binding of murine A20: 1 fold
[30]
  Fold decrease in binding of murine A20: 1 fold
[31]
  Fold decrease in binding of murine A20: 1 fold
[32]
  Fold decrease in binding of murine A20: 1 fold
[33]
  Fold decrease in binding of murine A20: 1 fold
[34]
  Fold decrease in binding of murine A20: 1 fold
[35]
  Fold decrease in binding of murine A20: 10 fold
[36]
  Fold decrease in binding of murine A20: 1 fold
[37]
  Fold decrease in binding of murine A20: 1 fold
[38]
  Fold decrease in binding of murine A20: 1 fold
[39]
  Fold decrease in binding of murine A20: 1 fold
[40]
  Fold decrease in binding of murine A20: 1 fold
[41]
  Fold decrease in binding of murine A20: 1 fold
[42]
  Fold decrease in binding of murine A20: 1 fold
[43]
  Fold decrease in binding of murine A20: 1 fold
[44]
  Fold decrease in binding of murine A20: 1 fold
[45]
  Fold decrease in binding of murine A20: 1 fold
[46]
  Fold decrease in binding of murine A20: 1 fold
[47]
  Fold decrease in binding of murine A20: 1 fold
[48]
  Fold decrease in binding of murine A20: 1 fold
